In PMC6819324 one finds binding data, which are given here for 14 sequences.

In this data set the target is T1, AdpAlin (Streptomyces lincolnensis NRRL 2936) (UniProt A0A1B1M9Y0).
T1 sequence: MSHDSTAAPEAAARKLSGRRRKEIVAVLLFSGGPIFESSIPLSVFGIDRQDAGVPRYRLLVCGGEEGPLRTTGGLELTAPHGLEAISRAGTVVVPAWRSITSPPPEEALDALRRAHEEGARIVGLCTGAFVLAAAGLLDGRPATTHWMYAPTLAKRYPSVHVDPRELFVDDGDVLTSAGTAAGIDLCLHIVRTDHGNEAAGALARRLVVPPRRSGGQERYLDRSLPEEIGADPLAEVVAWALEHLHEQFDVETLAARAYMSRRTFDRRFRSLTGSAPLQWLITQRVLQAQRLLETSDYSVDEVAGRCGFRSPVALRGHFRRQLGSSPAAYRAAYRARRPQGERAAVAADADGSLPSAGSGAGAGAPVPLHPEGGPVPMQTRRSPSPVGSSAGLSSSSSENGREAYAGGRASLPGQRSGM
Briefly: EMSA. The settings on record: EMSA: 20 mM Tris-HCl pH 7.5, 5% glycerol, 0.1% BSA; 2.5 nM 5'-biotin probe; AdpAlin 0-6.4 uM (12.8 uM for probe-neg); 200-fold unlabeled competitor; salt and …. Background: In EMSA bound probe runs differently from free probe, usually more slowly.
Take “AGCCAGTGACGATAAGCGACCACCTGGGTCTCGCCCTGACCGTAGATCTTCGACAGATCCGTGGCACGCGCCGCCACTGCGGTGGTCCGGCCGACGATGGGTGTGGTGGTCACGAGAGGGCACTCCTGGGAACGACGACTGGGGGAATACCTCCATCGTCGCCGCCGCGGAGCGCCGTGTAGTCAGCCGCTGTTCCCTTATCGTCACTGGCT (double strand) [bldAp-N]”: the binding result was “no binding”. Turning to “AGCCAGTGACGATAAGCGAGACAAGCAATCGGCTTCACGCCCTGTCAAGCGGCAGCAGACGGCTTCCCGTAATTCCTGGAAGTTATCCGGGAGTCGGCGCGAACGGCCCTCGATATCCGGTGCATTACCTGGGAATAGGGAATAGGGAACCGGTAATCCGCGGTCGGGGCAAGCGTCTGGGTGCGTGGACTTATCGTCACTGGCT (double strand) [mlmbAp-A]”, the binding entry is “no binding”. Consider “AGCCAGTGACGATAAGCGAGACAAGCAATCGGCTTCACGCCCTGTCAAGCGGCAGCAGACGGCTTCCCGTAATTCCTGGAAGTTATCCGGGAGTCGGCGCGAACGTGCCGCCACGGCCCTCGATATCCGGTGCATTACCTGGGAATAGGGAATAGGGAACCGGTAATCCGCGGTCGGGGCAAGCGTCTGGGTGCGTGGACTTATCGTCACTGGCT (double strand) [lmbAp-A]”, for which the binding result is reported as “binds”. Regarding “AGCCAGTGACGATAAGCGGGGACACACAGGGGTGGGCGGCACGGTGGGGGAAATACACCGGTCGGCTGACCGGTTTCCGCGCACGCGCCCGACTCTTTTCAGCCAACTTCCGACCACCGGGCATCCTTGTGTCCAACCACCCCCCAACCCCCGTTTGACCTGCACGGAAAGGGTCCCCACTTATCGTCACTGGCT (double strand) [adpAp-B-1]”, the binding result is recorded as “no binding”.

With “AGCCAGTGACGATAAGCGTGTCTGCATTCCACCATCCGGGCAGGCCATGGGCTCCGCATCGAGGTTCCCGAGCCTATCGGGACGCCTCCCCCCAACAGGGGTCGGGTGGCCCGATGTTGTCTTATTTTATTGAGTTCTGAGGGAGCCTTATCGTCACTGGCT (double strand) [bldAp-A]”, the binding result is listed as “binds”. Then “AGCCAGTGACGATAAGCTATAGGCTTCGCGGGCTTCGAACTCCGCAGCCGCCACGCCGACTTCGACGGTGCCGCCTACCGCCCGGACAGCCGCTACCACGTGTCCGTCTACGCCCGGGCGCACGGTGACTAGGGCGCGACGGCTCGCCGCCGCCGCGTTCCGGGCCTTATCGTCACTGGCT (double strand) [mlmbKp-B]”, with “no binding”; and “AGCCAGTGACGATAAGGCGTTTACCTAGAACAAATCCGGGGCAAGCTCGCTCAGCTGTCGCCATGGGCGCCCTGACGCCACTGCGGCCCACGGATCGCCCCGTCAGCAAACTGGCCGAATGCCAACGGCATACGGCCAGTTCCTGACGCGGGCCACGGGGTTCACTCCGCGGACCACGCGTGCGGCGGCCGCCTCACTTATCCCGATGAGGCCACGCGTCGTCCGCCTCCGCGATCTCCTCCAGGGTTCCGTCCTTATCGTCACTGGCT (double strand) [lmbUp-C]”, with “binds”. For “AGCCAGTGACGATAAGGGCCACACGTCGTAGACATCTGCGATCTTGTCACCGTAGAGCTTCGCGAAATCATGGTCGGACATTGAATTCTCTTTCCTCACCAGGACGTTGGCCACTCGGCGAGCGGCCGCAGGGAGACGGTGGCATGGGACGCGAGGGACAGTCGACACGGCAGCCGGTACCGGCGGTGTTCTTCGACCGGGACGGCGCTTATCGTCACTGGCT (double strand) [lmbJp-A]”, the binding result was “binds”. Then “AGCCAGTGACGATAAGGGCCACACGTCGTAGACATCTGCGATCTTGTCACCGTAGAGCTTCGCGAAATCATGGTCGGACATTGAATTCTCTTTCCTCACCAGGCTCGGCGAGCGGCCGCAGGGAGACGGTGGCATGGGACGCGAGGGACAGTCGACACGGCAGCCGGTACCGGCGGTGTTCTTCGACCGGGACGGCGCTTATCGTCACTGGCT (double strand) [mlmbJp-A]”, with “no binding”; and “AGCCAGTGACGATAAGGGCGTAGACGGACACGTGGTAGCGGCTGTCCGGGCGGTAGGCGGCACCGTCGAAGTCGGCGTGGCGGCTGCGGAGTTCGAAGCCCGCGAAGCGGGCCATCAGGTCCAGCTCCGTGGGGTGCTTATCGTCACTGGCT (double strand) [lmbKp-B]”, with “binds”; and “AGCCAGTGACGATAAGGGTTCCCGTGGTGCTCCTCTGGTACGGCACCTCGCTCGCCGGCGCCGCCGGCACCGCGCTCGGACTGGCCGCCGTCACCGCCGTCTGCCGTATCCTCCTGCGCCAGTCGGAGCGCGGTGCGGCACGGCTACTGGCCGAAGAACGGGCCCCCCATCGCGGCCACCGCCACCGGGCCGGAACGGGGACACACAGGGGTGGGCGCTTATCGTCACTGGCT (double strand) [adpAp-B-2]”, with “binds”. In the case of “AGCCAGTGACGATAAGTCGGACGAGGACGACGACAACCCCGCGGACGACCCGACAGGACTCGGCGAACGCCGCGTCTGCATCGGCACCGGCCCGCCCTCCGGATGCAGCGGAACCGGCGCACCGGCACCCGCCCCCGATCCGGCGGACGGCAAGGACCCGTCAGCGTCCTTATCGTCACTGGCT (double strand) [probe-neg]” it was “no binding”; in that of “AGCCAGTGACGATAAGTCTACTGTGTCGCGTGATGCCGGAGTGACCAGTTCGTCATCCGGCAGATTGTCGACTTGGCAACTTGGCGTGAAGCATTCGATCACGAAGCGTTGCACTCGTGGGGCGTGCAGGGAAGTGCGCCTTGTCGCAGTGGCCAATCCACGTAGGGTGCGCTTATCGTCACTGGCT (double strand) [adpAp-A]”, “binds”. Then “AGCCAGTGACGATAAGTGATCCGTACTTGATACATTGGCCGTTACATGTATCGGAGTTCCGAGGGGGGGCAATGATGCTGGTTCCGCCAAGCCATTCATGAGCTGCTCGCCTGCGCCGCCCTTCGTGGCGGTGGCGCGACATCGATGAGCGTGGTGGGCGCCGAACAACGGGGGTGAATCGCTGCTTCTTATCGTCACTGGCT (double strand) [lmbUp-A]”, with “binds”.
